Experimental data taken from US20160223554A1, “METHODS FOR DIAGNOSIS, PROGNOSIS AND METHODS OF TREATMENT” (priority 2011, published 2016).

Tested on: AML blasts
Test: SCNP phospho-flow signaling nodes in AML PBMC (Example 2, Study No. 1)
Type: cell-based, human
Conditions: for Mean Value of CRs: CR patients; for Mean Value of CRs / Mean Value of NRs: Study No. 1; for Mean Value of NRs: NR patients
Description: Frozen cells are thawed in a 37° C. water bath and gently resuspended in the vial and transferred to the 15 mL conical tube. The 15 mL tube is centrifuged at 930 RPM (200×g) for 8 minutes at room temperature. The supernatant is aspirated and the pellet is gently resuspended in 1 mL media A. The cell suspension is filtered through a 70 um cell strainer into a new 15 mL tube. The cell strainer is rinsed with 1 mL media A and another 12 ml of media A into the 15 mL tube. The cells are mixed into an even suspension. A 20 μL aliquot is immediately removed into a 96-well plate containing 180 μL PBS+4% FBS+CD45 Alexa 700+PI to determine cell count and viability post spin. After the determination, the 15 mL tubes are centrifuged at 930 RPM (200×g) for 8 minutes at room temperature. The supernatant is aspirated and the cell pellet is gently resuspended in 4 mL PBS+4 μL Amine Aqua and incubated for 15 min in a 37° C. incubator. 10 mL RPMI+1% FBS is added to the cell suspension and the tube is inverted to mix the cells. The 15 mL tubes are centrifuged at 930 RPM (200×g) for 8 minutes at room temperature. The cells are resuspended in Media A at the desired cell concentration (1.25×10^6/mL). For samples with low numbers of cells (<18.5×10^6), the cells are resuspended in up to 15 mL media. For samples with high numbers of cells (>18.5×10^6), the volume is raised to 10 mL with media A and the desired volume is transferred to a new 15 mL tube, and the cell concentration is adjusted to 1.25×10^6 cells/ml. 1.6 mL of the above cell suspension (concentration at 1.25×10^6 cells/ml) is transferred into wells of a multi-well plate. From this plate, 80 ul is dispensed into each well of a subsequent plate. The plates are covered with a lid (Nunc) and placed in a 37° C. incubator for 2 hours to rest.
A concentration for each stimulant that is five folds more (5×) than the final concentration is prepared using Media A as diluent. 5× stimuli are arrayed into wells of a standard 96 well v-bottom plate that correspond to the wells on the plate with cells to be stimulated.
Adding the stimulant: The cell plate(s) are taken out of the incubator and placed in a 37° C. water bath next to the pipette apparatus. The cell plate is taken from the water bath and gently swirled to resuspend any settled cells. With pipettor, the stimulant is dispensed into the cell plate and vortexed at “7” for 5 seconds. The deep well plate is put back into the water bath.
The plate is covered with foil sealer and incubated in a 37° C. water bath for 10 minutes. The plate is spun for 6 minutes at 2000 rpm at room temperature. The cells are aspirated using a 96 well plate aspirator (VP Scientific). The plate is vortexed to resuspend cell pellets in the residual volume. The pellet is ensured to be dispersed before the Methanol step (see cell permeabilization) or clumping will occur.
Cell Permeabilization: Permeability agent, for example methanol, is added slowly and while the plate is vortexing. To do this, the cell plate is placed on titer plate shaker and made sure it is secure. The plate is set to shake using the highest setting. A pipetter is used to add 0.6 mls of 100% methanol to the plate wells. The plate(s) are put on ice until this step has been completed for all plates. Plates are covered with a foil seal using the plate roller to achieve a tight fit. At this stage the plates can be stored at −80° C.
Cells are thawed if frozen. Cells are pelleted at 2000 rpm 5 minutes. Supernatant is aspirated with vacuum aspirator. Plate is vortexed on a “plate vortex” for 5-10 seconds. Cells are washed with 1 mL FACS buffer. Repeat the spin, aspirate and vortex steps as above. 50 μL of FACS/stain buffer with the desired, previously optimized, antibody cocktail is added to two rows of cells at a time and agitate the plate. The plate is covered and incubated in a shaker for 30 minutes at room temperature (RT). During this incubation, the compensation plate is prepared.

[1] = Fold = log2(MFI modulated) - log2(MFI unmodulated), 9 CRs, Study No.1
[2] = Fold = log2(MFI modulated) - log2(MFI unmodulated), 25 NRs, Study No.1
[3] = Fold metric, Study No. 1, CRp patient included in NR group
[4] = Total Phospho metric, Study No. 1, CRp patient included in NR group
[5] = read-out p-CREB, metric TotalPhospho
[6] = read-out p-Erk, metric TotalPhospho
[7] = read-out p-Plcγ2, metric TotalPhospho
[8] = read-out p-Stat1, metric TotalPhospho
[9] = read-out p-Stat3, metric TotalPhospho

Row | Molecule | p-Akt Fold, Mean Value of CRs [1] | p-Akt Fold, Mean Value of NRs [2] | Mean Value of CRs, p-Akt [3] | Mean Value of CRs, p-Erk [3] | Mean Value of NRs, p-Akt [3] | Mean Value of NRs, p-Erk [3] | Mean Value of CRs, p-CREB [4] | Mean Value of CRs, p-Plcγ2 [4] | Mean Value of NRs, p-CREB [4] | Mean Value of NRs, p-Plcγ2 [4] | Mean Value of CRs (read-out p-Akt, metric Fold) | Mean Value of NRs (read-out p-Akt, metric Fold) | Mean Value of CRs [5] | Mean Value of NRs [5] | Mean Value of CRs [7] | Mean Value of NRs [7] | Mean Value of CRs, p-Stat3 [4] | Mean Value of NRs, p-Stat3 [4] | Mean Value of CRs [9] | Mean Value of NRs [9] | other results
1 | SCF: stem cell factor, ligand of c-Kit | 0.12 | 0.57 | 0.09 | −0.06 | 0.56 | 0.11 | 1.32 | 1.80 | 1.92 | 2.79 | 0.12 | 0.57 | 1.38 | 1.92 | 1.87 | 2.81 | – | – | – | – | Mean Value of CRs (read-out p-Erk, metric Fold): −0.05; Mean Value of NRs (read-out p-Erk, metric Fold): 0.11; Mean Value of CRs [6]: 1.87; Mean Value of NRs [6]: 2.28
2 | IL-27: interleukin-27, cytokine modulator (protein, UniProt Q8NEV9 29-243; Q14213 21-229, looked up) Interleukin-27 subunit alpha: FPRPPGRPQLSLQELRREFTVSLHLARKLLSEVRGQAHRFAESHLPGVNLYLLPLGEQLPDVSLTFQAWRRLSDPERLCFISTTLQPFHALLGGLGTQGRWTNMERMQLWAMRLDLRDLQRHLRFQVLAAGFNLPEEEEEEEEEEEEERKGLLPGALGSALQGPAQVSWPQLLSTYRLLHSLELVLSRAVRELLLLSKAGHSVWPLGFPTLSPQP Interleukin-27 subunit beta: RKGPPAALTLPRVQCRASRYPIAVDCSWTLPPAPNSTSPVSFIATYRLGMAARGHSWPCLQQTPTSTSCTITDVQLFSMAPYVLNVTAVHPWGSSSSFVPFITEHIIKPDPPEGVRLSPLAERQLQVQWEPPGSWPFPEIFSLKYWIRYKRQGAARFHRVGPIEATSFILRAVRPRARYYVQVAAQDLTDYGELSDWSLPATATMSLGK | – | – | – | – | – | – | 1.25 | – | 2.36 | – | – | – | 1.40 | 2.35 | – | – | 1.01 | 1.85 | 1.07 | 1.86 | Mean Value of CRs, p-Stat1 [4]: 0.39; Mean Value of NRs, p-Stat1 [4]: 0.81; Mean Value of CRs [8]: 0.41; Mean Value of NRs [8]: 0.82
3 | G-CSF: granulocyte colony-stimulating factor (protein, UniProt P09919 31-207, looked up) Granulocyte …: TPLGPASSLPQSFLLKCLEQVRKIQGDGAALQEKLVSECATYKLCHPEELVLLGHSLGIPWAPLSSCPSQALQLAGCLSQLHSGLFLYQGLLQALEGISPELGPTLDTLQLDVADFATTIWQQMEELGMAPALQPTQGAMPAFASAFQRRAGGVLVASHLQSFLEVSYRVLRHLAQP | – | – | – | – | – | – | – | – | – | – | – | – | – | – | – | – | 1.40 | 2.74 | 1.66 | 2.70 | p-Stat5 Fold, Mean Value of CRs [1]: 0.47; p-Stat5 Fold, Mean Value of NRs [2]: 1.13; Mean Value of CRs, p-Stat3 [3]: 0.60; Mean Value of CRs, p-Stat5 [3]: 0.33; Mean Value of NRs, p-Stat3 [3]: 1.52; Mean Value of NRs, p-Stat5 [3]: 1.15; Mean Value of CRs (read-out p-Stat5, metric Fold): 0.47; Mean Value of NRs (read-out p-Stat5, metric Fold): 1.13
4 | FLT3L: fms-like tyrosine kinase receptor-3 ligand (protein, UniProt P49771 27-235, looked up) Fms-related tyrosine kinase 3 …: TQDCSFQHSPISSDFAVKIRELSDYLLQDYPVTVASNLQDEELCGGLWRLVLAQRWMERLKTVAGSKMQGLLERVNTEIHFVTKCAFQPPPSCLRFVQTNISRLLQETSEQLVALKPWITRQNFSRCLELQCQPDSSTLPPPWSPRPLEATAPTAPQPPLLLLLLLPVGLLLLAAAWCLHWQRTRRRTPRPGEQVPPVPSPQDLLLVEH | 0.18 | 0.64 | 0.10 | 0.08 | 0.65 | 0.33 | 1.39 | 1.81 | 2.13 | 2.78 | 0.18 | 0.64 | 1.50 | 2.12 | 1.88 | 2.80 | – | – | – | – | p-S6 Fold, Mean Value of CRs [1]: 0.28; p-S6 Fold, Mean Value of NRs [2]: 0.81; Mean Value of CRs, p-CREB [3]: 0.07; Mean Value of CRs, p-Plcγ2 [3]: −0.14; Mean Value of CRs, p-S6 [3]: 0.14; Mean Value of NRs, p-CREB [3]: 0.36; Mean Value of NRs, p-Plcγ2 [3]: −0.08; Mean Value of NRs, p-S6 [3]: 0.83; Mean Value of CRs (read-out p-S6, metric Fold): 0.28; Mean Value of NRs (read-out p-S6, metric Fold): 0.81
